Reference: patent publication US20140087995A1 (published 2014)
Numbered stars: 1 amine (or outer) side, 2 acyl side, 3 side chain; on linkers, the order of the positions; unused ones are H or OH. Bridge positions count the residues as written; N and C are the ends. Side chains are listed from the residue outwards. Ends that are not written are not given here. * marks the point of attachment. C20 diacid = O=C(O)CCCCCCCCCCCCCCCCCCC(=O)*; γGlu = O=C(O)[C@H](CCC(=O)[*:2])N[*:1]

T1: human amylin receptor (amylin 3(a) receptor: human calcitonin receptor plus RAMP-3) (human, UniProt P30988 25-474; O60896 24-148, limits assumed)
T1 sequence (looked up) 1: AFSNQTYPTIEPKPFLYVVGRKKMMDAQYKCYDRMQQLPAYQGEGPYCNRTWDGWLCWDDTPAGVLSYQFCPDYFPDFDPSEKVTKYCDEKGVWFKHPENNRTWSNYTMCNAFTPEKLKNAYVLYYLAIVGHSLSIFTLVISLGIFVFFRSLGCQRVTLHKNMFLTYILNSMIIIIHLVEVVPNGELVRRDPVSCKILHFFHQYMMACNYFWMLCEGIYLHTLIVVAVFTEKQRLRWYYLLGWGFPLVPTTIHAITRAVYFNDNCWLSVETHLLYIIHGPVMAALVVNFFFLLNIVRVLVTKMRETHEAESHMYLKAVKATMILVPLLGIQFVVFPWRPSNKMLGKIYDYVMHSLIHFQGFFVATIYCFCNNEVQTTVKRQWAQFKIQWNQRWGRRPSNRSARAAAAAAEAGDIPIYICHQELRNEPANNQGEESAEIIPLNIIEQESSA
T1 sequence (looked up) 2: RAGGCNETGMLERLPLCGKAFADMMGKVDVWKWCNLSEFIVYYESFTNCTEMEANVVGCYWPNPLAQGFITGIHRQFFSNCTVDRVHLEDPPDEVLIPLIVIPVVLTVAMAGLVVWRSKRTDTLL

T2: human calcitonin receptor (human, UniProt P30988 25-474)
T2 sequence (looked up): T1 sequence (looked up) 1

B1: N^ε-[(4S)-4-carboxy-4-(19-carboxynonadecanoylamino)butanoyl]Lys[Arg1,Arg17,Pro21,Pro27,His35]-h-amylin (peptide)
peptide: K([γGlu-C20 diacid])RCNTATCATQRLANFLRHSSPNFGAIPSSTNVGSHTY-NH2
modifications: disulfide 3-8; N-terminus assumed
SMILES: CC[C@H](C)[C@H](NC(=O)[C@H](C)NC(=O)CNC(=O)[C@H](Cc1ccccc1)NC(=O)[C@H](CC(N)=O)NC(=O)[C@@H]1CCCN1C(=O)[C@H](CO)NC(=O)[C@H](CO)NC(=O)[C@H](Cc1c[nH]cn1)NC(=O)[C@H](CCCNC(=N)N)NC(=O)[C@H](CC(C)C)NC(=O)[C@H](Cc1ccccc1)NC(=O)[C@H](CC(N)=O)NC(=O)[C@H](C)NC(=O)[C@H](CC(C)C)NC(=O)[C@H](CCCNC(=N)N)NC(=O)[C@H](CCC(N)=O)NC(=O)[C@@H](NC(=O)[C@H](C)NC(=O)[C@@H]1CSSC[C@H](NC(=O)[C@H](CCCNC(=N)N)NC(=O)[C@@H](N)CCCCNC(=O)CC[C@H](NC(=O)CCCCCCCCCCCCCCCCCCC(=O)O)C(=O)O)C(=O)N[C@@H](CC(N)=O)C(=O)N[C@@H]([C@@H](C)O)C(=O)N[C@@H](C)C(=O)N[C@@H]([C@@H](C)O)C(=O)N1)[C@@H](C)O)C(=O)N1CCC[C@H]1C(=O)N[C@@H](CO)C(=O)N[C@@H](CO)C(=O)N[C@H](C(=O)N[C@@H](CC(N)=O)C(=O)N[C@H](C(=O)NCC(=O)N[C@@H](CO)C(=O)N[C@@H](Cc1c[nH]cn1)C(=O)N[C@H](C(=O)N[C@@H](Cc1ccc(O)cc1)C(N)=O)[C@@H](C)O)C(C)C)[C@@H](C)O
notes: Synthetic acylated analogue of human amylin, extended by Lys at the N-terminus; also called compound 44
B2: N^-1-[(4S)-4-carboxy-4-(19-carboxynonadecanoylamino)butanoyl]-Gly[Arg1,Arg17,Pro21,Pro27,His35]-h-amylin (peptide)
peptide: {C20 diacid-γGlu}-GRCNTATCATQRLANFLRHSSPNFGAIPSSTNVGSHTY-NH2
modifications: disulfide 3-8
SMILES: CC[C@H](C)[C@H](NC(=O)[C@H](C)NC(=O)CNC(=O)[C@H](Cc1ccccc1)NC(=O)[C@H](CC(N)=O)NC(=O)[C@@H]1CCCN1C(=O)[C@H](CO)NC(=O)[C@H](CO)NC(=O)[C@H](Cc1c[nH]cn1)NC(=O)[C@H](CCCNC(=N)N)NC(=O)[C@H](CC(C)C)NC(=O)[C@H](Cc1ccccc1)NC(=O)[C@H](CC(N)=O)NC(=O)[C@H](C)NC(=O)[C@H](CC(C)C)NC(=O)[C@H](CCCNC(=N)N)NC(=O)[C@H](CCC(N)=O)NC(=O)[C@@H](NC(=O)[C@H](C)NC(=O)[C@@H]1CSSC[C@H](NC(=O)[C@H](CCCNC(=N)N)NC(=O)CNC(=O)CC[C@H](NC(=O)CCCCCCCCCCCCCCCCCCC(=O)O)C(=O)O)C(=O)N[C@@H](CC(N)=O)C(=O)N[C@@H]([C@@H](C)O)C(=O)N[C@@H](C)C(=O)N[C@@H]([C@@H](C)O)C(=O)N1)[C@@H](C)O)C(=O)N1CCC[C@H]1C(=O)N[C@@H](CO)C(=O)N[C@@H](CO)C(=O)N[C@H](C(=O)N[C@@H](CC(N)=O)C(=O)N[C@H](C(=O)NCC(=O)N[C@@H](CO)C(=O)N[C@@H](Cc1c[nH]cn1)C(=O)N[C@H](C(=O)N[C@@H](Cc1ccc(O)cc1)C(N)=O)[C@@H](C)O)C(C)C)[C@@H](C)O
notes: Synthetic acylated analogue of human amylin, extended by Gly at the N-terminus; also called compound 47

Key:
[1] = target: T1, human amylin receptor (amylin 3(a) …); experiment: cell-based or functional assay
[2] = target: T2, human calcitonin receptor; experiment: cell-based or functional assay

| Binder | Ratio hCT/hAmylin funct. [1] | hAmylin-R funct. EC50 [1] | hCTR funct. EC50 [2] |
| --- | --- | --- | --- |
| B1 | 24 ratio | 0.198 nM | 4.75 nM |
| B2 | 6 ratio | 0.222 nM | 1.32 nM |
